Measured values taken from paper PMC3235116.
“And” between values parts separate entries of the source, which are not always exact repeats. Equal values may be shown once.

Tests used:
P69949 [1] = test: AUC; F137L/E363G enolase incubated at pH 4.5 for one hour and dialysed overnight against SPR binding buffer; soluble fraction; octamer to monomers
P69949 [2] = test: AUC; each his-tagged enolase alone in SPR binding buffer (no Mg2+, with EDTA, pH 7.4); octamer to monomers
[3] = biological target: canine plasminogen (canine); test: SPR; dPgn amine-coupled at pH 4.5 to CM4 chip (340 RU); titration with F137L/E363G Str enolase 0-500 nM (2-fold series), 25°C
[4] = biological target: canine plasminogen (canine); test: co-sedimentation; dPgn made to precipitate with reductant (0.2 M DTT) in the presence of native soluble Str enolase; centrifuged, pellets and supernates on SDS-PAGE; initial dPgn:enolase monomer 1:1 or 1:3
[5] = biological target: fluorescently labeled, catalytically inactive derivative of human plasminogen (5'IAF-Pg S741C) (human); test: fluorescence polarisation; Str enolase first brought to pH 4.5, then diluted into phosphate buffer pH 6.7 (non-native enolase); labelled hPgn 140 nM, Str enolase 0.057 mM, 20°C
[6] = biological target: Streptococcus pyogenes enolase F137L/E363G with an N-terminal hexa-histidine tag (Streptococcus pyogenes) (UniProt P69949); test: AUC; F137L/E363G enolase incubated at pH 4.5 for one hour and dialysed overnight against SPR binding buffer; soluble fraction; octamer to monomers
[7] = biological target: Streptococcus pyogenes enolase F137L/E363G with an N-terminal hexa-histidine tag (Streptococcus pyogenes) (UniProt P69949); test: AUC; sedimentation velocity of each purified enolase alone, native (data not shown); octamer
[8] = biological target: canine plasminogen (canine); test: ITC; Str enolase brought to pH 9 (precipitated), dialysed back to pH 6.9, 30% activity left; enolase titrated into dPgn, close to 20°C
[9] = biological target: Streptococcus pyogenes enolase F137L/E363G with an N-terminal hexa-histidine tag (Streptococcus pyogenes) (UniProt P69949); test: AUC; each his-tagged enolase alone in SPR binding buffer (no Mg2+, with EDTA, pH 7.4); octamer to monomers
[10] = biological target: Streptococcus pyogenes enolase F137L/E363G with an N-terminal hexa-histidine tag (Streptococcus pyogenes) (UniProt P69949); test: ITC; Str enolase brought to pH 4.5 (precipitated), dialysed to pH 6.9, dissolved in 27% urea, dialysed again at pH 6.9, about 30% specific activity left; enolase titrated with dPgn, close to 20°C
[11] = biological target: Streptococcus pyogenes enolase F137L/E363G with an N-terminal hexa-histidine tag (Streptococcus pyogenes) (UniProt P69949); test: co-sedimentation; Str enolase (300 nM) adsorbed to azolectin (phosphatidyl choline) micelles, dPgn 1000 nM, 10 mM potassium phosphate, 100 mM NaCl, 4°C three days, 20 000 rpm 2 h, SDS-PAGE of pellets and supernates
[12] = biological target: Streptococcus pyogenes enolase F137L/E363G with an N-terminal hexa-histidine tag (Streptococcus pyogenes) (UniProt P69949); test: SPR; N-terminal His6 F137L/E363G Str enolase captured at neutral pH on Ni-NTA chip (~150 RU); single-cycle titration 15-2000 nM
[13] = biological target: wild type Streptococcus pyogenes enolase with a C-terminal deca-histidine tag (Streptococcus pyogenes) (UniProt P69949); test: AUC; sedimentation velocity of each purified enolase alone, native (data not shown); octamer
[14] = biological target: wild type Streptococcus pyogenes enolase with a C-terminal deca-histidine tag (Streptococcus pyogenes) (UniProt P69949); test: AUC; each his-tagged enolase alone in SPR binding buffer (no Mg2+, with EDTA, pH 7.4); octamer to monomers
[15] = biological target: wild type Streptococcus pyogenes enolase with an N-terminal hexa-histidine tag (Streptococcus pyogenes) (UniProt P69949); test: AUC; sedimentation velocity of each purified enolase alone, native (data not shown); octamer
[16] = biological target: wild type Streptococcus pyogenes enolase with an N-terminal hexa-histidine tag (Streptococcus pyogenes) (UniProt P69949); test: AUC; each his-tagged enolase alone in SPR binding buffer (no Mg2+, with EDTA, pH 7.4); octamer to monomers
[17] = biological target: wild type Streptococcus pyogenes enolase with no tag (Streptococcus pyogenes) (UniProt P69949); test: AUC; sedimentation velocity of each purified enolase alone, native (data not shown); octamer

**Q.** “Streptococcus pyogenes enolase F137L/E363G with an N-terminal hexa-histidine tag” was tested. Which “% monomeric” value (P69949 [1]) did it give?
**A.** 75% was monomeric

**Q.** What about the % monomeric (P69949 [2]) of the same substance?
**A.** 36%

**Q.** Which half saturation of all the association phases [3] does the source give for “Streptococcus pyogenes enolase F137L/E363G with an N-terminal hexa-histidine tag (from UniProt P69949 1-435) (enzyme)” here?
**A.** 50 nM

**Q.** What about the % of the precipitated protein that was Str enolase (initial ratio 1:1) [4] of the same substance?
**A.** 12%

**Q.** And the % of the precipitated protein that was Str enolase (initial ratio 1:3) [4]?
**A.** 25%

**Q.** And the dPgn:enolase ratio in the pellet (initial ratio 1:1) (dPgn per enolase) [4]?
**A.** 6

**Q.** And the dPgn:enolase ratio in the pellet (initial ratio 1:3) (dPgn per enolase) [4]?
**A.** 3

**Q.** What about the P (polarization) [5] of the same substance?
**A.** 0.43

**Q.** And the % octameric [6]?
**A.** 19%

**Q.** And the % octameric [7]?
**A.** > 90%

**Q.** And the stoichiometry N [7]?
**A.** 8

**Q.** And the stoichiometry N (sites per enolase monomer) [8]?
**A.** 0.18

**Q.** What about the % octameric [9] of the same substance?
**A.** 57%

**Q.** Which results are given for canine plasminogen (natural protein)?
**A.** stoichiometry N (dPgn per enolase monomer) [10]: 0.34; amount of dPgn relative to Str enolase that co-sedimented (Str enolase per dPgn (as 1:x)) [11]: 1 and 1.2; stoichiometry N (dPgn per enolase monomer) [12]: 1

**Q.** How did the % monomeric (P69949 [2]) turn out when “wild type Streptococcus pyogenes enolase with a C-terminal deca-histidine tag” was run?
**A.** 18%

**Q.** What does the source list for “wild type Streptococcus pyogenes enolase with a C-terminal deca-histidine tag (from UniProt P69949 1-435) (enzyme)”?
**A.** % octameric [13]: > 90%; stoichiometry N [13]: 8; % octameric [14]: 68%

**Q.** For “wild type Streptococcus pyogenes enolase with an N-terminal hexa-histidine tag”, which % monomeric (P69949 [2]) is on record?
**A.** 5%

**Q.** How did the % octameric [15] turn out when “wild type Streptococcus pyogenes enolase with an N-terminal hexa-histidine tag (from UniProt P69949 1-435) (enzyme)” was run?
**A.** > 90%

**Q.** And the stoichiometry N [15]?
**A.** 8

**Q.** What about the % octameric [16] of the same substance?
**A.** 88%

**Q.** “wild type Streptococcus pyogenes enolase with no tag (from UniProt P69949 1-435) (enzyme)” was tested. Which % octameric [17] did it give?
**A.** > 90%

**Q.** What about the stoichiometry N [17] of the same substance?
**A.** 8
